Like-named read-outs stand apart in the source and are kept apart here.
Legend:
eosinophils = test: Flow cytometric analysis of binding of lactoferrin by eosinophils; set-up: species or system human
Method: Eosinophils (10^6 cells) were incubated with or without the indicated concentrations of lactoferrin in 100 microliters of HEPES-HBSS-HSA buffer for 90 minutes at 4° C. The cells were collected by centrifugation at 300 g for 5 minutes at 4° C., and then incubated with 1.5 micrograms FITC-conjugated polyclonal anti-lactoferrin (Sigma Chemical Co.) or FITC-conjugated rabbit IgG (Sigma Chemical Co.) in 25 microliters PBS (pH 7.2) containing 0.1 percent gelatin and 0.1 percent azide (PBS-gel-azide) for 30 minutes on ice. The cells were washed twice in ice-cold PBS-gel-azide and were suspended in PBS-gel-azide buffer containing 1 percent formaldehyde for analysis by flow cytometry. Fluorescence intensity of 10,000 cells in each sample was measured using a FACScan flow cytometer (Becton-Dickinson; San Jose, Calif.).

[1] = system: lactoferrin receptor on neutrophils; settings: Boxer et al. 1982, cited from earlier work

- lactoferrin concentration at which binding by eosinophils is saturated (eosinophils; flow cytometry analysis, approximately 0.4 micromolar): 30 micrograms per milliliter
B1: lactoferrin: 78-80 kilodalton multifunctional glycoprotein of external secretions and neutrophil secondary granules (protein, UniProt P02788 20-710, looked up)
Lactotransferrin: GRRRSVQWCAVSQPEATKCFQWQRNMRKVRGPPVSCIKRDSPIQCIQAIAENRADAVTLDGGFIYEAGLAPYKLRPVAAEVYGTERQPRTHYYAVAVVKKGGSFQLNELQGLKSCHTGLRRTAGWNVPIGTLRPFLNWTGPPEPIEAAVARFFSASCVPGADKGQFPNLCRLCAGTGENKCAFSSQEPYFSYSGAFKCLRDGAGDVAFIRESTVFEDLSDEAERDEYELLCPDNTRKPVDKFKDCHLARVPSHAVVARSVNGKEDAIWNLLRQAQEKFGKDKSPKFQLFGSPSGQKDLLFKDSAIGFSRVPPRIDSGLYLGSGYFTAIQNLRKSEEEVAARRARVVWCAVGEQELRKCNQWSGLSEGSVTCSSASTTEDCIALVLKGEADAMSLDGGYVYTAGKCGLVPVLAENYKSQQSSDPDPNCVDRPVEGYLAVAVVRRSDTSLTWNSVKGKKSCHTAVDRTAGWNIPMGLLFNQTGSCKFDEYFSQSCAPGSDPRSNLCALCIGDEQGENKCVPNSNERYYGYTGAFRCLAENAGDVAFVKDVTVLQNTDGNNNEAWAKDLKLADFALLCLDGKRKPVTEARSCHLAMAPNHAVVSRMDKVERLKQVLLHQQAKFGRNGSDCPDKFCLFQSETKNLLFNDNTECLARLHGKTTYEKYLGPQYVAGITNLKKCSTSPLLEACEFLRK
- fluorescence intensity with FITC-conjugated anti-lactoferrin antibody (eosinophils; 30 micrograms per milliliter soluble lactoferrin, 90 minutes at 4° C): marked increase in the fluorescence intensity
- fluorescence intensity with FITC-conjugated anti-lactoferrin antibody (eosinophils; 100 micrograms per milliliter lactoferrin): did not produce any further increase in the level of fluorescence intensity
- Kd ([1]; read-out: dissociation constant of lactoferrin receptor described for neutrophils): ~200 nM
- Kd ([1]; read-out: dissociation constant of lactoferrin receptor described on neutrophils): ~200 nM
